{"source": "patent US10391048B2", "about": "“Recombinant high-stability superoxide dismutase and application thereof” (Hangzhou Redox Pharmatech Co., Ltd., priority 2016, dated 2019)", "molecules": {"B1": {"name": "M-type SOD: mutant high temperature resistant superoxide dismutase, amino acid sequence SEQ ID NO. 4; position 202 mutated from lysine to asparagine versus W-type SOD (protein)", "chain": "MPYPFKLPDLGYPYEALEPHIDAKTMEIHHQKHHGAYVTNLNAALEKYPYLHGVEVEVLLRHLAALPQDIQTAVRNNGGGHLNHSLFWRLLTPGGAKEPVGELKKAIDEQFGGFQALKEKLTQAAMGRFGSGWAWLVKDPFGKLHVLSTPNQDNPVMEGFTPIVGIDVWEHAYYLKYQNRRADYLQAIWNVLNWDVAEEFFNKA", "modifications": "amino acid sequence of M-type SOD", "notes": "position 202 mutated from lysine to asparagine versus W-type SOD"}}, "key": {"[1]": {"test_system": "LPS-induced zebrafish inflammation model", "test": "anti-inflammatory effect on LPS-induced inflammation", "details": "5 hours; for numbers of neutrophils (mean ± SE): model control 17.8", "protocol": "The zebrafish inflammation model was established by treatment of transgenic neutrophil fluorescent zebrafish through LPS injection.\nThe zebrafishes were randomly selected and put in the six-well plate, 30 per well. […] The normal control group and model control group were set at the same time. […] Image analysis was performed with Nikon NIS-Elements D3.10 advanced image processing software, the number of neutrophils (N) in zebrafish was calculated, and quantitatively analyzed. The formula of the rate of inflammation resolution was as follows:"}, "[2]": {"test_system": "copper sulfate induced zebrafish inflammation model", "test": "anti-inflammatory effect on copper sulfate-induced inflammation", "type": "in vivo", "design": "numbers of neutrophils (mean ± SE): dose or concentration left out as unconfirmed", "details": "5 hours; for Inflammation resolution rate (%): copper sulfate", "experimental": "The specific method was described by d'Alencon et al., BMCBiology.\nThe images were analyzed by Nikon NIS-ElementsD3.10 advanced image processing software."}, "[3]": {"test_system": "tail amputation injury zebrafish inflammation", "test": "anti-inflammatory effect on inflammation of tail amputation injury", "details": "5 hours", "protocol": "Model making: The model of zebrafish inflammation was established by mechanical amputation of tail fins of transgenic neutrophil fluorescent zebrafish.\nThe transgenic neutrophil fluorescent zebrafish were randomly selected and put in the six-well plate after mechanical amputation of tail fins, 30 per well. […] The normal control group and model control group were set at the same time. […] Image analysis was performed with Nikon NIS-Elements D3.10 advanced image processing software, the number of neutrophils (N) in zebrafish was calculated, and quantitatively analyzed. The formula of the rate of inflammation resolution was as follows:"}, "[4]": {"test_system": "TNBS-induced colonitis zebrafish model", "test": "pathological analysis of intestinal tract tissue", "type": "in vivo", "details": "15 μg/mL, 48 hours", "excerpt": "The fixed zebrafish was observed under the microscope for the colonic tissue and photographed for histopathological analysis, as described in the experimental results."}, "[5]": {"test": "stability of SOD at different pH", "type": "physicochemical", "details": "pH 12", "protocol": "(§1) The enzyme activity of SOD was determined by pyrogallol autoxidation method."}, "[6]": {"test_system": "TNBS-induced colonitis zebrafish model", "test": "therapeutic efficiency on TNBS-induced colonitis (intestinal lumen area)", "type": "in vivo", "details": "48 hours, model control 197660, normal control 130711", "experimental": "(Please refer to A. Jemal, R. Siegel, J. Xu, et al. Ward. Clinicians, 2010, 277-300, and Intestinal Upregulation of Melanin-Concentrating Hormone in TNBS-Induced Enterocolitis in Adult Zebrafish. Plos One, 2013, 8(12):1524-1528).\nImage analysis was performed by image analysis software, the area of zebrafish intestinal lumen was calculated, and quantitative analysis was carried out, and the statistical result was expressed with X±SE:\nThe therapeutic efficiency of the positive control group was calculated by replacing the treatment group in the above formula with the positive control group;"}, "[7]": {"test_system": "TNBS-induced colonitis zebrafish model", "test": "inflammation resolution of TNBS-induced colonitis (intestinal neutrophils)", "details": "intestinal tract, 48 hours, model control 9.4, normal control 1.6", "protocol": "Transgenic neutrophil fluorescent zebrafish of 3 days after fertilization was used to establish a zebrafish colonitis model after incubation for 48 h in water for fish containing a final concentration of 4.5 μM TNBS.\nModel control group: TNBS-induced colonitis zebrafish model (model 2);\nPositive control group: prednisone was added to water for fish at a final concentration of 15 μg/mL;\n30 transgenic neutrophil fluorescent zebrafishes were treated in each experiment group for 48 hours;"}, "zebrafish [8]": {"test_system": "zebrafish", "test": "maximum non-lethal concentration (MNLC), 5 h treatment", "type": "in vivo", "details": "2000 μg/mL for 5 hours", "experimental": "30 zebrafishes were treated in each experiment group. During the course of the experiment, the dead zebrafishes were counted and removed. After the M-type SOD treatment, the number of dead zebrafishes in each experiment group was counted, and MNLC was determined. […] Therefore, the concentration of 2000 μg/mL was selected as the maximum concentration in the evaluation of anti-inflammatory effect of SOD."}, "zebrafish [9]": {"test_system": "zebrafish", "test": "maximum non-lethal concentration (MNLC), 48 h treatment", "type": "in vivo", "details": "for Death rate (%) / Death (tail): 48 hours; for Death (tail): 30 zebrafish", "experimental": "30 zebrafishes were treated in each experiment group;\nDuring the experiment course, count dead zebrafish every day and remove dead zebrafish;"}, "[10]": {"details": "1 h", "protocol": "as §1"}}, "note": "Several values for one entry are separate records, joined by “and”; a condition that tells them apart may be missing. Identical values can stand only once. Marks after values point to notes of the source that are not given here.", "data": [{"molecule": "COc1ccc2c(c1)c(CC(=O)O)c(C)n2C(=O)c1ccc(Cl)cc1", "note": "[indometacin, reference compound]", "values": [{"measurement": "Inflammation resolution rate (%)", "setting": "[1]; 60 μM", "result": 72, "unit": "%"}, {"measurement": "Inflammation resolution rate (%)", "setting": "[2]; 60 μM", "result": "88*** %"}, {"measurement": "Inflammation resolution rate (%)", "setting": "[3]; 60 μM", "result": 62, "unit": "%"}]}, {"molecule": "C[C@]12C=CC(=O)C=C1CC[C@@H]1[C@@H]2C(=O)C[C@@]2(C)[C@H]1CC[C@]2(O)C(=O)CO", "note": "[prednisone, reference compound]", "values": [{"measurement": "intestinal histopathology", "setting": "[4]", "result": "intestinal mucosal histology was improved significantly"}]}, {"molecule": "B1", "values": [{"measurement": "Inflammation resolution rate (%)", "setting": "[1]; 15 μg/mL", "result": 0, "unit": "%"}, {"measurement": "numbers of neutrophils (mean ± SE)", "setting": "[1]; 15 μg/mL", "result": "17.7 and 17.7 ± 1.4"}, {"measurement": "Inflammation resolution rate (%)", "setting": "[1]; 50 μg/mL", "result": 16, "unit": "%"}, {"measurement": "numbers of neutrophils (mean ± SE)", "setting": "[1]; 50 μg/mL", "result": "14.9 and 14.9 ± 1.0"}, {"measurement": "Inflammation resolution rate (%)", "setting": "[1]; 150 μg/mL", "result": 31, "unit": "%"}, {"measurement": "Inflammation resolution rate (%)", "setting": "[1]; 450 μg/mL", "result": 34, "unit": "%"}, {"measurement": "Inflammation resolution rate (%)", "setting": "[1]; 1350 μg/mL", "result": 58, "unit": "%"}, {"measurement": "Inflammation resolution rate (%)", "setting": "[1]; 2000 μg/mL", "result": 65, "unit": "%"}, {"measurement": "numbers of neutrophils (mean ± SE)", "setting": "[2]; model control 15.5", "result": "14.9 and 14.9 ± 0.6"}, {"measurement": "Inflammation resolution rate (%)", "setting": "[2]; 15 μg/mL", "result": 4, "unit": "%"}, {"measurement": "Inflammation resolution rate (%)", "setting": "[2]; 50 μg/mL", "result": 24, "unit": "%"}, {"measurement": "Inflammation resolution rate (%)", "setting": "[2]; 150 μg/mL", "result": 47, "unit": "%"}, {"measurement": "Inflammation resolution rate (%)", "setting": "[2]; 450 μg/mL", "result": 77, "unit": "%"}, {"measurement": "Inflammation resolution rate (%)", "setting": "[2]; 1350 μg/mL", "result": 91, "unit": "%"}, {"measurement": "Inflammation resolution rate (%)", "setting": "[2]; 2000 μg/mL", "result": 92, "unit": "%"}, {"measurement": "activity kept", "setting": "[5]", "result": 97, "unit": "%"}, {"measurement": "Inflammation resolution rate (%)", "setting": "[3]; 150 μg/mL", "result": 29, "unit": "%"}, {"measurement": "Inflammation resolution rate (%)", "setting": "[3]; 450 μg/mL", "result": 51, "unit": "%"}, {"measurement": "Inflammation resolution rate (%)", "setting": "[3]; 1350 μg/mL", "result": 58, "unit": "%"}, {"measurement": "Inflammation resolution rate (%)", "setting": "[3]; 2000 μg/mL", "result": 59, "unit": "%"}, {"measurement": "intestinal lumen area (mean ± SE)", "setting": "[6]; 15 μg/mL in water for fish", "result": "153560 ± 6080"}, {"measurement": "intestinal lumen area (mean ± SE)", "setting": "[6]; 50 μg/mL in water for fish", "result": "142595 ± 3167"}, {"measurement": "intestinal lumen area (mean ± SE)", "setting": "[6]; 150 μg/mL in water for fish", "result": "141259 ± 5359"}, {"measurement": "intestinal histopathology", "setting": "[4]; 50 μg/mL and 150 μg/mL", "result": "the inflammation of intestinal mucosa was significantly improved"}, {"measurement": "number of neutrophils (mean ± SE)", "setting": "[7]; 15 μg/mL", "result": "6.8 ± 0.88"}, {"measurement": "number of neutrophils (mean ± SE)", "setting": "[7]; 50 μg/mL", "result": "5.6 ± 0.45"}, {"measurement": "number of neutrophils (mean ± SE)", "setting": "[7]; 150 μg/mL", "result": "3.7 ± 0.53"}, {"measurement": "toxic effects on zebrafish", "setting": "zebrafish [8]", "result": "no toxic effects"}, {"measurement": "resistance against pepsin degradation", "setting": "pepsin", "result": "significantly better than ordinary SOD"}, {"measurement": "Death rate (%)", "setting": "zebrafish [9]; 150 μg/mL", "result": 0, "unit": "%"}, {"measurement": "Death (tail)", "setting": "zebrafish [9]; 150 μg/mL", "result": 0, "unit": "tail"}, {"measurement": "Death rate (%)", "setting": "zebrafish [9]; 200 μg/mL", "result": 20, "unit": "%"}, {"measurement": "Death (tail)", "setting": "zebrafish [9]; 200 μg/mL", "result": 6, "unit": "tail"}, {"measurement": "Death rate (%)", "setting": "zebrafish [9]; 330 μg/mL", "result": 100, "unit": "%"}, {"measurement": "Death (tail)", "setting": "zebrafish [9]; 330 μg/mL", "result": 30, "unit": "tail"}, {"measurement": "Death rate (%)", "setting": "zebrafish [9]; 1000 μg/mL", "result": 100, "unit": "%"}, {"measurement": "Death (tail)", "setting": "zebrafish [9]; 1000 μg/mL", "result": 30, "unit": "tail"}, {"measurement": "Death rate (%)", "setting": "zebrafish [9]; 3000 μg/mL", "result": 100, "unit": "%"}, {"measurement": "Death (tail)", "setting": "zebrafish [9]; 3000 μg/mL", "result": 30, "unit": "tail"}, {"measurement": "MNLC", "setting": "zebrafish [9]; zebrafish, treatment for 48 hours", "result": 150, "unit": "µg/mL"}, {"measurement": "thermal stability (remaining enzyme activity)", "setting": "[10]", "result": "maintained extremely high stability within a wider temperature range"}]}]}
